Experimental findings from PMC7398979 are described below.

In assay [1] the target is sulfur oxygenase reductase from Sulfurisphaera tokodaii (Sulfurisphaera tokodaii strain 7). The assay can be described thus: crystal structure; sitting drop at 20 °C, 1.2 M ammonium sulfate, 100 mM MES-NaOH pH 6.1, 4% dioxane; space group I23, 8 monomers per asymmetric unit; 1.73 Å.
Assay [2] shares this target. The assay is described as follows: SEC; gel filtration on HiLoad 16/600 Superdex 200 pg; standards thyroglobulin (669 k), pyruvate kinase (237 k), ovalbumin (44 k), RNaseA (14 k); peak at 539 kDa. (In general: Size exclusion chromatography separates by hydrodynamic size, large species first.)
Assay [3] shares this target. The assay can be described thus: cryo-EM structure; single particle analysis, 10 mg/mL in 20 mM Tris-HCl pH 8.0, 150 mM NaCl; sample partially purified (heat treatment, gel filtration); 200 kV Talos Arctica; octahedral symmetry imposed, 2.24 Å (C1: 2.73 Å).

By stoichiometry N is commonly meant the number of molecules, sites or subunits per partner or assembly. For “sulfur oxygenase reductase from Sulfurisphaera tokodaii (enzyme)”, the stoichiometry N in assay [1] is 24; in assay [2] it was 15 to 16; in assay [3], 24.
